Consider 1 molecule from article PMC4698670.

In test [1] the target is T1, recombinant human PRX1 (Sigma-Aldrich) (human) (UniProt Q06830).
T1 sequence: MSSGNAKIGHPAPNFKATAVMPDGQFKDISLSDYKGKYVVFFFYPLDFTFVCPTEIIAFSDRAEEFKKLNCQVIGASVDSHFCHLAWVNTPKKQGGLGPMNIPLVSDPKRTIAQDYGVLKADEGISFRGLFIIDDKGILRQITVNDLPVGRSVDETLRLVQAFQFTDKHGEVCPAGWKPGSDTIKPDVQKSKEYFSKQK

In test [2] the target is T1, recombinant human PRX1 (Sigma-Aldrich) (human). The source holds these as a separate data set.

B1: recombinant fortilin_(ΔL7R) tagged with Strep-tag (natural protein)
chain: MIIYRDRISHDEMFSDIYKIREIADGLCLEVEGKMVSRTEGNIDDSLIGGNASAEGPEGEGTESTVITGVDIVMNHHLQETSFTKEAYKKYIKDYMKSIKGKLEEQRPERVKPFMTGAAEQIKHILANFKNYQFFIGENMNPDGMVALLDYREDGVTPYMIFFKDGLEMEKC
Regarding B1, the PRX1 peroxidase activity in vitro (NADPH consumption rate, reaction mix normalized to 1.00; PRX1 alone 4.38) with fortilin (ΔL7R) added in test [1] amounted to 5.9 A.U. Besides, in test [2], the decrease of PRX1 enzymatic activity (NADPH consumption rate) by Mst1 in the presence of fortilin (ΔL7R) (PRX1 alone: 75.3% decrease) is 77.9 % decrease.
